Results reported in patent US9494574B2, “T-cell death-inducing epitopes” (AbGenomics Cooperatief U.A., priority 2004, dated 2016).
“Also recorded” adds a separate entry of the source.

Experiments:
[1] = test system: non-activated human T-cells; assay: Apoptosis of non-activated (resting) human T-cells with monoclonal antibodies (annexin V staining, FACS, CD3-positive gated); format: cell-based; settings: for Percentage of apoptotic T-cells: Day 0, non-activated human T-cells, hybridoma culture supernatant, 6 hours, annexin V positive among CD3-positive cells; for effect on non-activated human T-cells: result in words
Source text: (§1) It is well known that T-cell death-inducing antibodies can be used as therapeutic agents to treat T-cell-related diseases such as transplantation rejections, autoimmune diseases, and allergy. Three monoclonal antibodies against human T-cells were generated, and the capabilities of these monoclonal antibodies to induce apoptosis of activated human T-cells were examined. Culture supernatants containing monoclonal antibodies secreted by hybridoma cell line m128-9F9, m152-15A7, or m166-43B6 were incubated with either non-activated human T-cells (Day 0) or in vitro activated human T-cells (Day7) for 6 hours. Cells were stained with annexin V after incubation, and subjected to FACS analysis. CD3-positive cells were gated to ensure counting of either in vitro activated human T-cells or resting human T-cells. The apoptotic cells were annexin V staining-positive. […] This capability of inducing apoptosis of activated T-cells yet sparing the resting T-cells is a unique feature of the apoptotic pathway and is a dominating feature of therapeutic reagents targeting T-cell-mediated diseases.

[2] = test system: in vitro activated human T-cells; assay: Induction of death of activated human T-cells by monoclonal antibodies (annexin V staining, FACS, CD3-positive gated); format: cell-based; settings: for Percentage of apoptotic T-cells: Day 7, in vitro activated human T-cells, hybridoma culture supernatant, 6 hours, annexin V positive among CD3-positive cells; for percentage of in vitro activated T-cells undergoing apoptosis compared to that of untreated cells: annexin V staining and FACS analysis; for induction of death (apoptosis) of in vitro activated human T-cells: result in words
Procedure: Activated T cells (see above) were resuspended to a final concentration of 5×10^5 cells/ml in RPMI medium containing 5 ng/ml of IL-2, and treated with control Ig, m128-9F9, m152-15A7, or m166-43B6.
as §1

Molecule	Percentage of apoptotic T-cells [1]	effect on non-activated human T-cells [1]	Percentage of apoptotic T-cells [2]	percentage of in vitro activated T-cells undergoing apoptosis compared to that of untreated cells [2]	induction of death (apoptosis) of in vitro activated human T-cells [2]
m152-15A7: mouse monoclonal antibody from hybridoma raised against Concanovalin A-activated human T-cells; induces T-cell apoptosis (antibody, V domains shown) VL: DILMTQTPLSLPVSLGDQASISCRSSQSIVHNDGNTYFEWYLQKPGQSPKLLIYKVSNRFSGVPDRFSGSGSGTHFTLNISRVEAEDLGIYYCFQGSYVPLTFGAGTKLELK VH: DVQLVESGGGLVQPGGSRKLSCAASGFTFSSFGMHWVRQAPEKGLEWVAYINGGSSTIFYANAVKGRFTISRDNPKNTLFLQMTILRSEDTAIYYCGRYASYGGGAMDYWGQGTSVTVSS	5.23%	did not affect non-activated human T-cells	51.66%	about doubled	able to induce T-cell apoptosis in vitro; also recorded: induced death of in vitro activated human T-cells
m166-43B6: mouse monoclonal antibody from hybridoma raised against Concanovalin A-activated human T-cells; induces T-cell apoptosis (antibody, V domains shown) VL: ENVLTQSPAIMSASPGEKVTMTCRASSTVNSTYLHWFQQKSGASPKLWIYGSSNLASGVPARFSGSGSGTSYSLTISSVEAEDAATYYCQQYSGYPLTFGAGTTLELK VH: EVQLQQSGPDLVKPGALVKISCKASGYSFTAYYIHWVKQSHGKSLEWIGRVNPNTGGTSYNPKFKGKAILNVDKSSSTAYMELRSLTSEDSAVYYCARSGSPYYRYDDWGQGTTLTVSS	6.57%	did not affect non-activated human T-cells	49.44%	about doubled	able to induce T-cell apoptosis in vitro; also recorded: induced death of in vitro activated human T-cells
m128-9F9: mouse monoclonal antibody from hybridoma raised against Concanovalin A-activated human T-cells; induces T-cell apoptosis (antibody, V domains shown) VL: DVLMTQTPLSLPVSLGDQASISCRSSQSIVNSNGNTYLEWYLQKPGQSPKLLIYKVSNRFSGVPDRFSGSGSGTDFTLKISRVEAEDLGVYYCFQGSHVPWTFGGGTKLEIK VH: EVQLVETGGGLVQPKGSLKLSCAASGFTFNTNAMNWVRQAPGKGLEWVARIRSKSNNYATYYADSVKDRFTISRDDTQSMIYLQMNNLKTEDTGMYYCVRGGSYWYFDVWGAGTTVTVSS	5.82%	did not affect non-activated human T-cells	28.71%	about doubled	able to induce T-cell apoptosis in vitro; also recorded: induced death of in vitro activated human T-cells
